Results taken from publication doi:10.1101/489906 (bioRxiv, 2018).

How the values were obtained:
CHDC-1974 GII.4 VLPs = CHDC-1974 GII.4 VLPs (Norovirus Hu/GII.4/CHDC2094/1974/US …, UniProt D0QJ68, strain); assay: ELISA
Saga-2006 GII.4 VLPs = Saga-2006 GII.4 VLPs (Norovirus Hu/GII.4/Saga4/2006/JP …, UniProt B5BTR7, strain); assay: ELISA
NSW-2012 GII.4 P domain = molecular target: T1, NSW-2012 GII.4 P domain (Norovirus …, strain); assay: ITC
T1 chain: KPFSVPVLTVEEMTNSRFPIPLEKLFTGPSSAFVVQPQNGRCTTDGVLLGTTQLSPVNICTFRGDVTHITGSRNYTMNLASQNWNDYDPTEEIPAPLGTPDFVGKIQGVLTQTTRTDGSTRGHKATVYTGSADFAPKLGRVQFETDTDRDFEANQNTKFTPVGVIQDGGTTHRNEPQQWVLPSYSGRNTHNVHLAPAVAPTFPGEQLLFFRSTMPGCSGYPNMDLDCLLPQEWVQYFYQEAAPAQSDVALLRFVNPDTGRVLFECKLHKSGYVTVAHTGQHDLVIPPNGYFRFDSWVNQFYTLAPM

B1: 10E9 MAb (IgG) (antibody, V domains shown)
VH: QVQLQQSGAELMKPGASVKISCTATGYTFITYWIQWVKQRPGHGLEWIGETLPGSGSTNYNEKFKGKATFTADTSSNTAYMQLSSLTSEDSAIYYCARIGRSNDYWGQGTTLTVSS
VL: QIVLTQSPTIMSASPGEKVTMTCSASSSVDYMHWYQQKSGTSPKRWIYDTYKLASGVPARFSGSGSGTSYSLTINSMEAEDAATYYCQQWSSNPLTFGAGTKLELK
binding result (CHDC-1974 GII.4 VLPs): no binding
binding result (Saga-2006 GII.4 VLPs): binds
Kd (NSW-2012 GII.4 P domain): 59 nM
dH (NSW-2012 GII.4 P domain): -4.3 ± 0.011 kcal/mol
stoichiometry N (NSW-2012 GII.4 P domain): 0.98
